Results on 40 sequences are retold here after the nanobody polyreactivity screen of Harvey et al. (2022).

The nature of the series: yeast display, Sf9 membrane polyspecificity reagent, FACS + sequencing; frameworks hold sequencing errors. In short, it runs like this:
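A synthetic nanobody library was expressed on Saccharomyces cerevisiae BJ5465 by galactose induction for 36–48 hours. The library was stained for 1 hour at 4 °C with 10% biotinylated, detergent-solubilized Sf9 membrane reagent and enriched with streptavidin microbeads before FACS. Low and high (top ~1%) gates were set on anti-HA fluorescence for expression and streptavidin fluorescence for reagent binding, and each polyreactivity label reflects the gate of origin.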
On to “QVHLVDSGGGLVQAGGSLRLSCAASGFIFSKYAMGWYRQAPGKERELVAAISWNGGSTYYADSVKGRFTISRDNAKNTVYLQMNSLKPEDTAVYYCNARGRYRKSERRAFDYWGQGTQVTVSS”, for which the “polyreactivity (PSR sort gate)” value was “high polyreactivity”.

In the case of “QVQLVESGGGLVQAGGSLRLSCAASGRTFAPYVMGWYRQAPGKERELVAAITWSGGSTYYADSVKGRFTISRDNAKNTVYLQMNSLKPEDTALYYCAVKGAGGPKYDYWGQGTQVTVSS”, the “polyreactivity (PSR sort gate)” value is “high polyreactivity”.

Consider “QFQLVESGGGLVQAGGSLRLSCAASGRTFKVYAMGCYRQAPGKERELVAAITGGGSTNYADSVKGRFTISRDNAKNTVYLQMNSLKAEDTAVYYCNARYYYRLVKWSRFSSYDFWGQGTQVTVSS”, for which the “polyreactivity (PSR sort gate)” value is “low polyreactivity”.

For “QVQLVESGGGLVQAGGSLRLSCAACGRTFVSYSMGWYRQAPGKERELVAAISRSGGRTYYADSVKGRFTISRDNAKNTVYLQMNSLKPEDTAVYYCATIQYGTLARYDYWGQGTQVTVSS”, the “polyreactivity (PSR sort gate)” value was “high polyreactivity”.

On to “QVQLVESGGVLVQAGGSLRLSCAASGRTFNLIAMGWYRQAPGKERELVAAISRSGGSTYYADSEKGRFTISRDNAKNTVYLQMNSLNPEETAVYYCNASALGRPYYRGSYFVFQGYEYWGLGTQVTVSS”, for which the “polyreactivity (PSR sort gate)” value is “low polyreactivity”.

As to “QVQLVESGGGLVQAGGSLRLSCAASGSIFGTNAMGWYRQAPGKERELVAVISDGGSTYYADSVKGRFTISRDNAKNTVYLQMNSLKPEDTAVYYCNTPLESPFYSRFGTTESDHWGQGTQVTVSS”, the “polyreactivity (PSR sort gate)” value is “low polyreactivity”.

Regarding “QVQLVESGGGLVQAGGSLRLSCAASGSTFIDYGMGWYRQAPGKERELVAAIDLDSGDTYYADSVKGRFTISRENAKNTVYLQMNSLKPEDTAVYYCAAQYWYRYNYWGQGTQVTVSS”, the “polyreactivity (PSR sort gate)” value is given as “low polyreactivity”.

Turning to “QVQLVESGGGLVQAGGSLRLSCAASGSTFCFYAMGWYRQSPGKERELVATITIGGRTYADSVKGRFTISRDNAKNTLYLQMNSLKPEDTAVYYCNARNHVQVLFRRDYWVQGTQVTVSS”, the “polyreactivity (PSR sort gate)” value is recorded as “low polyreactivity”.

“QVQLVESGGGLVQAGGSLRLSSAASGLTFQEYAMGWYRQAPGKESELVAAISWSGGSTYYADSVKGRFTISRDNAKNTVYLQMNSLKPEDTAVYYCAAEAYEEYITGWYAYDYWGQGTQVTVSS”: the “polyreactivity (PSR sort gate)” value is given as “high polyreactivity”.

As for “QVQLVESGGGLVQAGGSLRLSCAASGIIFYRYAMGWYRQAPGKEREFVAAISWSGGSTTYADSVKGRFTISRDNAKNTVYLQMNSLKPEDTAVYYCNADRIYWSLWGPAYDYWGQGTQVTVSS”, the “polyreactivity (PSR sort gate)” value is listed as “high polyreactivity”.

Regarding “QVQLVESGGRLVQAGGSLRLSCAASGRTFSAYAMGWYRPAPGKERELVARITSVDSTNYADSVKGRFTISRDNAKNTVYLQMNSPKPEDTAVYYCNATFGYPFVDYDDYWGQGTQVTVSS”, the “polyreactivity (PSR sort gate)” value is reported as “low polyreactivity”.

On to “QVQLVESGGGLVQAGGSLRLSCAASGGTFSQYAMGWYRQAPGKERELVATISYSGTSTYYADSVKGRFTISRDNEKNTVYLHMNSLKPEDTAVYDCNIRWRWYRSDYYSWGQGTQVTVSS”, for which the “polyreactivity (PSR sort gate)” value is “high polyreactivity”.

On to “QVQLVESGGGLVQAGGSLRLSCAASGSNFPYYALGWYRQAPGNERELVATITYRGGSTNYADSVKGRFTISRDNAKNTVYLQMNSLKPEDTAVYYCADYGYVLASPYPYSFVKLGYWGQGTQVTVSS”, for which the “polyreactivity (PSR sort gate)” value is “low polyreactivity”.

Turning to “QVQLVESGGGLVQAGGSLRLSCAASGRTFYANLMGWYRQAPGKERELVAAITYSGGSTYYADSVKGRFTISRDNATITVYLPMSSLKPEDTAVYYCAADNVSTFYYWGQGTQVTVSS”, the “polyreactivity (PSR sort gate)” value was “low polyreactivity”.

In the case of “QVLLQETGGGLVQAGGSLSLSCAASGTISTDIRMGWYRLAPGKEREFVASIDGCSTTYYADSVKGRFTFSRDNAKNTVYLQMNRLIPEDTSMYYCAAREATEFYLYYWGQGTQVTVSS”, the “polyreactivity (PSR sort gate)” value was “low polyreactivity”.

Take “QVQLVESGGGLVQAGGSLRLSCAASGRTIGGYAMGWYRQAPGKERELVATITRGGRTYYADSVKGRFTISRDNAKNTVYLQMNSLKPEDTAVYYCAARYGQSRSVYNLYRFDYWGQGTQVTVSS”: the “polyreactivity (PSR sort gate)” value is on record as “high polyreactivity”.

Take “QFQLVESGGGLVQAGGSLRLSCAASGSIIPIYAMGWYRQAPGKERELVAAINRSGGSTYYADSVKGRFTISRDNAKNTVYLQMNSLKPEDTAVYYCNADYGYHNQLFWGYYGWSSDHWGQGTQVTVSS”: the “polyreactivity (PSR sort gate)” value was “low polyreactivity”.

On to “QVQLEESGGGLVQAGGSLRLSCAASGRTFGLYAMGWYRQAPGKERELVAAITRSDGGTNYADSVKGRFTISRDNAKNTVYVQMNSLKPEDTSVYYCAVDLGYVSDVSWYAYEYWGQGTQVTVSS”, for which the “polyreactivity (PSR sort gate)” value is on record as “low polyreactivity”.

For the sequence “QVQLVESGGGLVQAGGSLRLSCAASGRIFNYYAMRWYRQAPGKETELVAAITSSGGSTYYADSVKGRFTISRDNAKNTVYLQMNSLKPEDTAVYYCAAVSTATIRGGYWGQGTQVTVSS”, the “polyreactivity (PSR sort gate)” value is “high polyreactivity”.

As to “QVQLVESGGGIVQAGGSLRLTCAASGRTYTPYAMGWYRQAPGKERELVAAIDTSGGSTYADSVKGRFTISRDNAKNTVYLQMNSLKPEDTAVYYCATRGFYSWDYWYLWEYDYWGQGTQVTVSS”, the “polyreactivity (PSR sort gate)” value is recorded as “low polyreactivity”.

For “QVQLVESGGGLVQAGGSLRLSCAACGRIFVYYVMGWYRQAPGKERELVAAISNSGTSTYYADSLKGRFTISRDNAKNTVYLQMNSLKPEDTAVYYCNTVGQRWLSDDDYWGQGTQVTVSS”, the “polyreactivity (PSR sort gate)” value is “low polyreactivity”.

In the case of “QVQLVESGGGLVQAGGSLRLSCAASGRIFDPYAMGWYRQAPGKERELVASISWSGGRTYYADSVKGRFTISRDNAKNTVYLQMNSLKPEDTAVYYCAARQWYRYKVRFDYWGQGTQVTVSS”, the “polyreactivity (PSR sort gate)” value is recorded as “high polyreactivity”.

As for “QVQLVESGGGLVQAGGSLRLSCAASGSIFLSYDMGWYRQAPGKERELVAAITQSGGSTYYADSVKGRFTISRDNAKNTVYLQINSLIPEDTAVYYCAADYGYLPQETYPTYGYYYWGQGTQVTVSS”, the “polyreactivity (PSR sort gate)” value is reported as “low polyreactivity”.

Take “QVQLVESGGGLVQAGGSLRLSCAPSGRTFRYYAMGWYRQAPGKERELVATISKSGGSTYYADSVKGRFTISRDNAKNTVYLQMNSLKPEDTAVYYCAAPIYNGYASWQVYYWGQGTQVTVSS”: the “polyreactivity (PSR sort gate)” value is given as “high polyreactivity”.

On to “QVQLVESGGGLVQAGGSLRLTCAASGLFYAMGWYRQAPGKQRELVAAISSVGSTNYADSVKGRFTISRDNAKNTVYLQMNSLKPEDTAVYYCAAYFYTYPVDRYGSYYWGQGTQLTVSS”, for which the “polyreactivity (PSR sort gate)” value was “low polyreactivity”.

With “QVQLVESGGGLVQAGGSLRLSCAASGSMFSTYAMGWYRQAPGKERELVAASSRSGGSTYYADSVKGRFTISRDNAKNTVYLQMNSLKPEDTADYYCAKVARRQRYDYWGQGTQVTVSS”, the “polyreactivity (PSR sort gate)” value is listed as “high polyreactivity”.

Regarding “QVQLVESGGGLVQAGGSLRLSCAASGRISLVNAMGWYRQAPGKERELVAAITYTGGSTYYADSVKGRFTISRDNAKNTVYLQMNSLKPEDTAVYYCAAEYYYVYTYDYWGQGTQVTVSS”, the “polyreactivity (PSR sort gate)” value was “high polyreactivity”.

Regarding “QVQLVESGGGLVQAGGSLRLSCAASGNTFTFYAMGWYRQAPGKERELVASITGRGGSTYYADSVKGRFTISRDNAKNTVYLQMNSLKPEDTAVYYCNADLPAYGLQGDDYWGQGTQVTVSS”, the “polyreactivity (PSR sort gate)” value is on record as “low polyreactivity”.

In the case of “QVQLVESGGGLVQAGGSLRLSCAASGSTFDVYAMGWYRQAPGKERELVAAISRSGGSTYYADSVKGRFTISRDNAKNTVYLQMNSLKPEDTAVYYCNARLARWGSYEYNYWGQGTQVTVSS”, the “polyreactivity (PSR sort gate)” value is reported as “low polyreactivity”.

Regarding “QVQLVESGGGLVQAGGSLRLSCAASGRIFYGYVMGLYRQAPGKERELVAAISLSGGRTYYADSVKGRFTISRDNAKNTVYLQMNSLKPEDTAVYYCAAEGIKGISYGHDYWGQGTQVTVSS”, the “polyreactivity (PSR sort gate)” value is given as “low polyreactivity”.

Take “QVQHVESGGGLVQAGGSLRLSCAASGIIFYWYAMGWYRQAPGKERELVAAISRTGGSTYYADSVKGRFTISRDNAKNTVYLQMNSLKPEDTAVYYCAADDGGYWSAGHEYWGQGTQVTVSS”: the “polyreactivity (PSR sort gate)” value is on record as “high polyreactivity”.

“QVQLVESGGGLVQAGGSLRLSCAASGGIFRIYAMGGYRQAPGKERELVAAISRSGGTTYYADSVKGRFTISRDNAKNTVDLQMNSLKPEDTAVYYCNARYYQSRHVNDVPNYYWGHGTQVTVSS”: the “polyreactivity (PSR sort gate)” value is “high polyreactivity”.

Regarding “QVQLVESGGGLVQAGGSLRLSCAASGSTFDVNAMGWYRPAPGKERELVAAISFSGGSTYYADSVKGRFTISRDNAKNTVYLQMNSLKPEDTAVYYCAAEEWRSYYEEYDYWGQGTQVTVSS”, the “polyreactivity (PSR sort gate)” value is reported as “low polyreactivity”.

Take “QVQLVESGGGLVQAGGSLRLSCAASGSIFDVYTMGWDREAPGKERELVAAINTGGGSTYYADSVKGRFTISRDNAKNTVYLQMNSLKPEDTAVYYCAASVYHYGPLYYWGQGTQVTVSS”: the “polyreactivity (PSR sort gate)” value is “low polyreactivity”.

“QVQLVESGGGLVQAGGSLRLSCAASGRNFGDYAMGWYRQAPGKERELVAAISSSGGRTYYADSVKGRFTISRDNAKNTVYLQMNSLQPEDTAVYYCAAQSKYYQYYSWGQGTQVTVSS”: the “polyreactivity (PSR sort gate)” value is “high polyreactivity”.

For the sequence “QVQLVESGGGLVQAGGSLRLSCAASGSIFQQYAMGWYRQAPGKERELVAAITYSGDGTYYADSVKGRFTISRDNAKNTVYLQMNSLKPEDTAVYYCAAYPRDPYKEYDYWGQGNQVTVSS”, the “polyreactivity (PSR sort gate)” value is recorded as “low polyreactivity”.

Turning to “QVQLVESGGGLVQAGGSLRLSCAASGSIFDLYAMGWYRQAPGKERELVAAISSGATTNYADSVKGRFTISRDNAKNTVYLQMNSLKPEDTAVYYCAKYYRISSLYVIVSAYVYWGQGTQVTVSS”, the “polyreactivity (PSR sort gate)” value is listed as “low polyreactivity”.

In the case of “QVQLVESGGGLVQAGGSLRLSCAASGSTFGTYVMGWYRQAPGKERELVAAISKRGGRTYYADSVKGRFTISRDNAKNTVYLQMNSLKPEDTAVYYCNAVYLYSGSSARYYWGQGTQVTVSS”, the “polyreactivity (PSR sort gate)” value is “high polyreactivity”.

As to “QVQLVESGGGLVQAGGSLRLSCAASGRTFFFNAMGWYRQAPGIERELVATISWNGGDTYYADSVKGRFTISRDNAKNTVYLQMNSLKPEDTAVYDCNARVLWGQGTQVTVSS”, the “polyreactivity (PSR sort gate)” value is “high polyreactivity”.

For the sequence “QVQLVESGGGLVQAGGSLRLSCAPSGLIFASYAMGWYRQAPGKERELVAAITSSGGSTYYADSVKGRFTISRDNAKNTVYLQMNSLKPEDTAVYYCAADIYTYNLFYHWRWLDYNYWGQGTQVTVSS”, the “polyreactivity (PSR sort gate)” value was “high polyreactivity”.
